Patent US20220235142A1 (SHANGHAI GENBASE BIOTECHNOLOGY, published 2022)

Key:
[1] = target: T1, CEACAM1 protein overexpressed on SW620 cells (UniProt P13688 35-526, limits assumed); test: flow cytometry on SW620-CEACAM1 cells
T1 construct: whole, on cells; also called SW620-CEACAM1
T1 sequence (looked up): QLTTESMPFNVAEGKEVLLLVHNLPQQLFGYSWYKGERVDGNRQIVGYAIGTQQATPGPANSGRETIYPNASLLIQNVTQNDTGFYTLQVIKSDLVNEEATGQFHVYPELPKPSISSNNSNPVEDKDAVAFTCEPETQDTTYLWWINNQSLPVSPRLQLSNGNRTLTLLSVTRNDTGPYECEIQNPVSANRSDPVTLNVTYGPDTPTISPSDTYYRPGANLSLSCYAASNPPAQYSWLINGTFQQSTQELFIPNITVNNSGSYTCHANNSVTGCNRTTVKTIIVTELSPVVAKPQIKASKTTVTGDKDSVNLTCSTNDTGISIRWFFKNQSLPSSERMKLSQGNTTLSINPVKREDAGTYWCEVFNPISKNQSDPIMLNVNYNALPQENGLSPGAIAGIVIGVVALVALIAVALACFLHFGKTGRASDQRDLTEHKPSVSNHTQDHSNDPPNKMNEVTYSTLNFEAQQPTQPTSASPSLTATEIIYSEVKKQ
Experimental: (§1) Flow cytometry (FACS) was used to detect the binding of antibody to LOVO tumor cells that naturally expressed human CEACAM5 protein or cells that overexpressed different CEACAM proteins. In short, cells were first collected, washed with PBS, counted, and diluted to obtain 2*10⁶/ml cell suspension; 10 μl of an antibody working solution was added to 100 μl of the cell suspension, and incubated at 4° C. for 30 min in the dark; after washing twice with PBS, a corresponding fluorescent-labeled secondary antibody Goat-anti-Human IgG (H+L) (Invitrogen) was added, incubated at 4° C. for 30 min in the dark, after washing twice with PBS, it was suspended in 400 μl of FACS buffer, and the binding situations of the antibody to the cells were detected by FACS.
(§2) The binding situations of the supernatants of the chimeric antibody UM05-6L and the control antibody UM05-8 (anti-CEACAM5 antibody, prepared by the hybridoma method in our laboratory) to different cells at a concentration of 3 μg/mL were detected, in which SW620-CEACAM1 was a cell overexpressing CEACAM1 protein, SW620-CEACAM3 was a cell overexpressing CEACAM3 protein, CHO-CEACAM6 was a cell overexpressing CEACAM6 protein, CHO-CEACAM7 was a cell overexpressing CEACAM7 protein, and CHO-CEACAM8 was a cell overexpressing CEACAM8 protein. […]

[2] = target: T2, human CEACAM5 protein naturally expressed on LOVO tumor cells (human, UniProt P06731 35-685); test: flow cytometry on LOVO tumor cells that naturally express human CEACAM5
T2 construct: whole, on cells; Cell-surface CEACAM5 on tumor cell lines; also called LOVO cells; CEACEM5
T2 sequence (looked up): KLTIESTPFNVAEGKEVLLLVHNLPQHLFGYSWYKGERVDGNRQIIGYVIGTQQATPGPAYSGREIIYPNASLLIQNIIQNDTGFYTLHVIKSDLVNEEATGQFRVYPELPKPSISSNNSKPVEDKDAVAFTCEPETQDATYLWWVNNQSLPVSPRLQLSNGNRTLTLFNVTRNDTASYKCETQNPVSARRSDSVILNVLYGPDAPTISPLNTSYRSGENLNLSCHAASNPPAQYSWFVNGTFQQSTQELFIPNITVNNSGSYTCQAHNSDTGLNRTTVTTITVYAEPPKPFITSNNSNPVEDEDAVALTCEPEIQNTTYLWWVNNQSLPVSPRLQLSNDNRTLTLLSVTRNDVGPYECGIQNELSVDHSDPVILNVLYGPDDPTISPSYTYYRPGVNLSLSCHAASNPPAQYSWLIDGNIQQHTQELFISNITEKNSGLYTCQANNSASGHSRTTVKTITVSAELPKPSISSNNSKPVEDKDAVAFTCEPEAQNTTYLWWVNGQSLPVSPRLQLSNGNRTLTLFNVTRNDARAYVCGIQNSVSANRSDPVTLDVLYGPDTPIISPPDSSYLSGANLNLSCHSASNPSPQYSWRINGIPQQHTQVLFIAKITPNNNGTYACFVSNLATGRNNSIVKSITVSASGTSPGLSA
Experimental: as §1
Furthermore, we used FACS to detect the EC50 of the chimeric antibody UM05-6L binding to LOVO tumor cells that naturally expressed human CEACAM5. […] Based on the above results, the chimeric antibody UM05-6L had excellent binding affinity, specificity and selectivity to CEACAM5.

[3] = target: T3, CEACAM6 protein overexpressed on CHO cells (UniProt P40199 35-320, limits assumed); test: flow cytometry on CHO-CEACAM6 cells
T3 construct: whole, on cells; also called CHO-CEACAM6
T3 sequence (looked up): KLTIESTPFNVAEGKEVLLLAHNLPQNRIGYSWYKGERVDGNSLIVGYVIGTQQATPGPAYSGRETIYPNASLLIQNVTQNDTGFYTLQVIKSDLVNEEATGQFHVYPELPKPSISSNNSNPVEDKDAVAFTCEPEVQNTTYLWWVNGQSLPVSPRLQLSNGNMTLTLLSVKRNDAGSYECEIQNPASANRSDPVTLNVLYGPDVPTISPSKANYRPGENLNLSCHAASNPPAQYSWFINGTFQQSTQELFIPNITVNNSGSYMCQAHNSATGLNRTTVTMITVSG
Experimental: as §1, §2

[4] = target: T4, CEACAM3 protein overexpressed on SW620 cells (UniProt P40198 35-252, limits assumed); test: flow cytometry on SW620-CEACAM3 cells
T4 construct: whole, on cells; also called SW620-CEACAM3
T4 sequence (looked up): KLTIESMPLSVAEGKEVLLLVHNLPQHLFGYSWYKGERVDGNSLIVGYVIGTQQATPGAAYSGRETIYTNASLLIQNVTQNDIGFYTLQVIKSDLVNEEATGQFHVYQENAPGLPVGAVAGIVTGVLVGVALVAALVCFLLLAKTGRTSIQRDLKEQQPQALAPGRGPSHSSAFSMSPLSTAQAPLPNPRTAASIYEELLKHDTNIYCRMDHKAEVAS
Experimental: as §1, §2

human CEACAM5 protein = target: T5, human CEACAM5 protein (human, UniProt P06731 35-685, limits assumed); test: ELISA, plate coated with human CEACAM5 protein at 1 µg/mL, goat anti-human IgG HRP
T5 construct: Protein used as ELISA coating; the immunogen was CEACAM5 protein (L2C01001) purified from tumor patients; also called CD66e; carcinoembryonic antigen cell adhesion molecule 5
T5 sequence (looked up): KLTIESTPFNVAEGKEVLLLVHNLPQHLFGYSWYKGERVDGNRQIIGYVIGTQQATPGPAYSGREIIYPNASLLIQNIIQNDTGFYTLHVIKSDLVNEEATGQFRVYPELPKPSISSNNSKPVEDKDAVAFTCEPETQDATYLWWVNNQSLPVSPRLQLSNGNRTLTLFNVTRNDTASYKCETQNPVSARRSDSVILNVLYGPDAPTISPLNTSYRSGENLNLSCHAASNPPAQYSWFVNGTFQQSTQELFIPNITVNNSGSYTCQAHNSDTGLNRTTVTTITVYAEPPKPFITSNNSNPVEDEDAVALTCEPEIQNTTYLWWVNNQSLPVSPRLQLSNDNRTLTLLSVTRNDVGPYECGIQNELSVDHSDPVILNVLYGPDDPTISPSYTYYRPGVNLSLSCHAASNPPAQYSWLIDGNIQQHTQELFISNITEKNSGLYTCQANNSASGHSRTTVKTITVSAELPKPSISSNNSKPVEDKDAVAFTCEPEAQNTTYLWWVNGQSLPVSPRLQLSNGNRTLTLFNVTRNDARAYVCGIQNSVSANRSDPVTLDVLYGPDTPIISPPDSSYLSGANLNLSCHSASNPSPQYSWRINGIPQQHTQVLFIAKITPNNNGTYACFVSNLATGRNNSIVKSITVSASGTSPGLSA
Experimental: On the next day, it was first washed with 300 μL of PBST (Tween20: 0.5‰) for 3 times, then blocked with 100 μL/well of 5% BSA/PBS for 1 hour, and shaken at room temperature. Washing was performed 3 times with 300 μL of PBST. A series of dilution solutions of antibody samples were prepared with PBS, and added at 100 μL/well to the 96-well plate and shaken at room temperature for 1 hour. Washing was performed 3 times with 300 μL of PBST. A secondary antibody goat anti-human IgG HRP solution was prepared, added at 100 μL/well to the 96-well plate, and shaken at room temperature for 30 minutes. Washing was performed 4 times with 300 μL of PBST. 100 μL/well TMB was added to perform color development for 20 min. 100 μL/well of 0.6N H₂SO₄ was added to stop the color development, and OD450 nm was detected.

[5] = target: T6, CEACAM7 protein overexpressed on CHO cells (UniProt Q14002 36-242, limits assumed); test: flow cytometry on CHO-CEACAM7 cells
T6 construct: whole, on cells; also called CHO-CEACAM7
T6 sequence (looked up): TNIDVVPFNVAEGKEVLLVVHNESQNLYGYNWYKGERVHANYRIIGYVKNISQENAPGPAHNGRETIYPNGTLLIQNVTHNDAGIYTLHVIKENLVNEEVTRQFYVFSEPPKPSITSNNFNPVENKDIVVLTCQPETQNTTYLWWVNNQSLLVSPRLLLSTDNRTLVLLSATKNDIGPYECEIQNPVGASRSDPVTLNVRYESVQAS
Experimental: as §1, §2

binding result [1]: no binding (tested: 3 µg/mL)
EC50 [2]: 0.276 µg/mL
binding result [3]: no binding (tested: 3 µg/mL)
binding result [4]: no binding (tested: 3 µg/mL)
EC50 (human CEACAM5 protein): 0.0475 µg/mL
binding result [5]: no binding (tested: 3 µg/mL)
B1: human-mouse chimeric antibody UM05-6L (antibody, human IgG1, kappa, V domains shown)
VH: EVQLQQSGPELVKPGASVKISCKASGYTFTDYYLNWVKQSPGKSLEWIGNINPINDFTTYNQKFKAKATLTVDKSSTTSYMALRSLTSEDSAVYYCTRYDGYFAYWGQGTTLTVSS
VL: DIQMNQSPSSLSASLGDTITITCHASQNINVWLSWYQQKPGNIPKLLIYKASNLHTGVPSRFSGSGSGTGFTLTISSLQPEDIATYYCQQGQSYPWTFGGGTKLEIKR
notes: expressed in HEK293 cells, purified on Protein A
